Three molecules from article PMC9982576, “Nuclear Fructose‐1,6‐Bisphosphate Inhibits Tumor Growth and Sensitizes Chemotherapy by Targeting HMGB1” (Advanced Science, 2023) can be followed below.

Numbering of substitutions follows the chain as printed.

Assay [1] addresses T1, HMGB1 (Homo sapiens, UniProt P09429).
T1 construct: full-length, expressed in and purified from human HEK293 cells; self-associates into oligomers
T1 sequence (P09429 1-215): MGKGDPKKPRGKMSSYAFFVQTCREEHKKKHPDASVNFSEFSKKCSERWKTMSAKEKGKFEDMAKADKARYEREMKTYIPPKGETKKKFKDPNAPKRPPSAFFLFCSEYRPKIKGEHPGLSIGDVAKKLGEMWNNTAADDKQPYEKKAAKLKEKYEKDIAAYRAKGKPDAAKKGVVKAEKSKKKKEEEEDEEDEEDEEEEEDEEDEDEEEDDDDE
Description: SPR, inhibition of free HMGB1 binding to chip-anchored DNA. To be noted: 100 mM Hepes, 50 mM NaCl; 25 °C; unmodified DNA.

For a further assay, the target named is T2, HMGB1 A-box (aa1–83) (Homo sapiens, UniProt P09429).
T2 construct: A-box domain aa1-83, purified from HEK293 cells; assayed with synthetic C15 peptide (HMGB1 C-tail aa200-214)
T2 sequence (P09429 1-83): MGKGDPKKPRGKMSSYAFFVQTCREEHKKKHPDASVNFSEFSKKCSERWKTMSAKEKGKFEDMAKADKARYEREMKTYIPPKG
Description: ITC of A-box with C15 peptide, with or without F1,6P. In kind it is binding. To be noted: 0.2 mM F1,6P; 100 mM Hepes, 50 mM NaCl; disruption of the A-box - C-tail peptide interaction.

In assay [2] the target is T1, HMGB1. Description: isothermal titration calorimetry. The format is binding. Conditions: 100 mM Hepes, 50 mM NaCl; single-site model; allosteric ligand.
Assay [3] addresses T1, HMGB1. Kind of assay: SPR, inhibition of free HMGB1 binding to chip-anchored HMGB1. To be noted: 100 mM Hepes, 50 mM NaCl; 25 °C; HMGB1 self-association. An excerpt: SPR, inhibition of free HMGB1 binding to chip-anchored HMGB1 on HMGB1 | inhibitory efficiency of F1,6P on free HMGB1 binding to chip‐anchored HMGB1
The target of assay [4] is GFP(C)-HMGB1-K43/K44A-GFP(N) construct. Description: split-GFP fluorescence complementation in HEK293 cells (Cytation cell imaging reader). Conditions: each construct normalised to its own 0 mM value (1.0), read off a plot.
The target of assay [5] is T3, HMGB1 A-box (aa1–83), purified (UniProt P09429 1-83).
T3 construct: HMGB1 A-box, aa1-83; also called HMG A-box; source: HEK293 cells, expressed and purified
T3 sequence (looked up): T2 sequence (P09429 1-83)
Description: ITC; purified HMGB1 A-box in the cell titrated with free C-tail (15) peptide; 100 mM Hepes, 50 mM NaCl; with or without 0.2 mM F1,6P; single site binding model. Conditions: both partners purified.

Assay [6] has as its target T4, HMGB1 A-box K43/44A, purified (UniProt P09429 1-83, K43/44A | K43/44A).
T4 construct: HMGB1 A-box (aa1-83 as told for the wild-type A-box) with K43 and K44 changed to alanine; also called K43/44A A-box; source: HEK293 cells, expressed and purified
T4 sequence (looked up): T2 sequence (P09429 1-83) with K43A, K44A
The assay is described as above. To be noted: both partners purified.

For `O=P(O)(O)OC[C@H]1OC(O)(COP(=O)(O)O)[C@@H](O)[C@@H]1O` (stereo partly drawn) [F1,6P], the IC50 at HMGB1 [1] worked out at 14.1 µM; on HMGB1 [3] it was 12.7 µM. In addition, the “ITC of A-box with C15 peptide, with or without F1,6P” value on HMGB1 A-box (aa1–83) was “C15 peptide displayed good affinity for the A‐box, whereas the interaction was highly disrupted by F1,6P”. In addition, binding on HMGB1 [2] was characterised by a dissociation constant (Kd) of 28.6 µM.
Consider “GFP(C)-HMGB1(A-B)-linker-HMGB1(C)-GFP(N) fusion protein K43A; K44A”, for which the response (relative fluorescence intensity) was 0.93 in assay [4] (1 mM F1,6P, parent: est. 0.83); 0.92 in assay [4] (5 mM F1,6P, parent: est. 0.53); 0.9 in assay [4] (10 mM F1,6P, parent: est. 0.38).

B1: C15 peptide (HMGB1 aa200–214) (peptide, UniProt P09429 200-214, looked up)
peptide: EEDEEDEDEEEDDDD
notes: HMGB1 acidic C-tail, aa200-214; also called C-tail (15) peptide; C-tail (15); source: synthetic peptide
With B1, the binding result in assay [5] and in assay [6] was “binds” each time.
